Data taken from US20070003522A1 (published 2007).

Biological target: T1, mouse transferrin receptor 1 (TfR1) on TRH3 cells (293T cells stably expressing mouse TfR1) (mouse, UniProt Q62351 1-763)
T1 construct: whole, on cells; also called mTfR1; CD71
Experiment: FACS on TRH3 cells, anti-TfR1 antibody staining after incubation with pseudovirus

T1 sequence (Q62351 whole entry): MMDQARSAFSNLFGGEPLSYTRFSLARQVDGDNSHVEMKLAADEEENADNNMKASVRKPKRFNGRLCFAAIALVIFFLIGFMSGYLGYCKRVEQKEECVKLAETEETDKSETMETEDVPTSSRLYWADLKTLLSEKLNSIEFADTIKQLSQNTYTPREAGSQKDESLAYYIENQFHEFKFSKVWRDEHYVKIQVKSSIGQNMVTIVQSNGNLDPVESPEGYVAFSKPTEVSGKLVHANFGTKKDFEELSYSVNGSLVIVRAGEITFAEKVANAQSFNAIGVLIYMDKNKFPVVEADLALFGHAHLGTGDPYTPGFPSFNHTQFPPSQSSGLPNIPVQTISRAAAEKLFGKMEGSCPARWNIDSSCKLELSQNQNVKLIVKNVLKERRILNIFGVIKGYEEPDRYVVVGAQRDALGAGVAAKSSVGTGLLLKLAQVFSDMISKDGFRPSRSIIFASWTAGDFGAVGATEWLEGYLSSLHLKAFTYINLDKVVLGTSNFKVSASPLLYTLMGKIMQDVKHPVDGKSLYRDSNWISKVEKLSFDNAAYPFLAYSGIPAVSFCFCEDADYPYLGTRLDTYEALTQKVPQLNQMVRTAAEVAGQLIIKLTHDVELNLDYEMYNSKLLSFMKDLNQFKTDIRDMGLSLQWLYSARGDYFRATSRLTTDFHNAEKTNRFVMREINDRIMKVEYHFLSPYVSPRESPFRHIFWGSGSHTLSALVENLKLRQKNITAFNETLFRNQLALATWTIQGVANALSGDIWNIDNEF

B1: wild-type MMTV (C3H strain) env protein on pseudotyped MoMLV virus (other)
chain: ESYWAYLPKPPILHPVGWGNTDPIRVLTNQTIYLGGSPDFHGFRNMSGNVHFEGKSDTLPICFSFSFSTPTGCFQVDKQVFLSDTPTVDNNKPGGKGDKRRMWELWLTTLGNSGANTKLVPIKKKLPPKYPHCQIAFKKDAFWEGDESAPPRWLPCAFPDQGVSFSPKGALGLLWDFSLPSPSVDQSDQIKSKKDLFGNYTPPVNKEVHRWYEAGWVEPTWFWENSPKDPNDRDFTALVPHTELFRLVAASRYLILKRPGFQEHDMIPTSACVTYPHAILLGLPQLIDIEKRGSTFHISCSSCRLTNCLDSSAYDYAAIIVKRPPYVLLPVDIGDEPWFDDSAIQTFRYATDLIRAKRFVAAIILGISALIAIITSFAVATTALVKEMQTATFVNNLHRNVTLALSEQRIIDLKLEARLNALEEVVLELGQDVANLKTRMSTRCHANYDFICVTPLPYNASESWERTKAHLLGIWNDNEISYNIQELTNLISDMSKQHIDTVDLSGLAQSFANGVKALNPLDWTQYFIFIGVGALLLVIVLMIFPIVFQCLAKSLDQVQSDLNVLLLKKKKGGNAAPAAEMVELPRVSYT
notes: On virions it is processed into SU (gp52) and TM (gp36); also called wild type pseudovirus; wt
binding result: binds
